In a protein production outcome set (Wang et al. 2014):

Test: label from the status in PepcDB records

Sequence | protein production
MQFLAPIISIVVGFLSFVLVLRTWMQFCQVSAYLPLSQSLLRLTAPMVNPVSKFIPTVKNINFAALLIALALLAVEKGVLGLPLTMAVLVGLLGIIKMFGQILFFTTLIRALMSWVTRGDHPLDEVIAQITEPVLGIIRKILPRTGMLDFSVMVLGFGLLLLNNLFYSVFGAFWAVA | failed
MRLIERYLFRQLLGPTLLATAALVALALLARSLSEFDVLVEQRQSALVFLKIILLALPQLLGIMMPLALFVAALVALNRLHTEQEIVVCFAGGMSRWRVISPAMRLAVIAALISLISGLWLQPWSARQIRETAFQIKTDVAATLVQPGQFTEPGPGLTVYAQSIDRDNKIQNLFIHQELPNGAASTYSSREAEIATRKGEPVLIMRHGSNQQFSRDGVLQYTSFDEYTFDLSSLFHSDELLHYKIADRYPHELFFPDLTQEWEQRNKDKLLAEGHSRFAGPLYNIALMSMALAAVLGGSFSRMGYGKRIAAVGAAAAIVRIVGFGVQAACEDDPWLNVLQYIVPLAATAWAMSQIFRQRVSPRRKTKPATPAPAFSGAA | failed
MLKKEYLKNPYLVLFAMIVLAYVFSVFCRFYWVWWASEFNEYFFNNQLMIISNDGYAFAEGARDMIAGFHQPNDLSYYGSSLSTLTYWLYKITPFSFESIILYMSTFLSSLVVIPIILLANEYKRPLMGFVAALLASVANSYYNRTMSGYYDTDMLVIVLPMFILFFMVRMILKKDFFSLIALPLFIGIYLWWYPSSYTLNVALIGLFLIYTLIFHRKEKIFYIAVILSSLTLSNIAWFYQSAIIVILFALFALEQKRLNFMIIGILGSATLIFLILSGGVDPILYQLKFYIFRSDESANLTQGFMYFNVNQTIQEVENVDFSEFMRRISGSEIVFLFSLFGFVWLLRKHKSMIMALPILVLGFLALKGGLRFTIYSVPVMALGFGFLLSEFKAILVKKYSQLTSNVCIVFATILTLAPVFIHIYNYKAPTVFSQNEASLLNQLKNIANREDYVVTWWDYGYPVRYYSDVKTLVDGGKHLGKDNFFPSFSLSKDEQAAANMARLSVEYTEKSFYAPQNDILKSDILQAMMKDYNQSNVDLFLASLSKPDFKIDTPKTRDIYLYMPARMSLIFSTVASFSFINLDTGVLDKPFTFSTAYPLDVKNGEIYLSNGVVLSDDFRSFKIGDNVVSVNSIVEINSIKQGEYKITPIDDKAQFYIFYLKDSAIPYAQFILMDKTMFNSAYVQMFFLGNYDKNLFDLVINSRDAKVFKLKI | failed
MTTIPSTAEAKLEMLTTINRAIAGSRPEALPPYPVPAPLSRAEILHQFEDRILDYGAAYTHVSAAELPGAIAKALGNARRVIVPAGIPAPWLTVGMDVLRDEPPLSHAELDRADAVLTGCAVAISETGTIILDHRADQGRRALSLIPDFHICVVREDQIVQTVREGVEAVAASVREGRPLTWLSGGSATSDIELVRVEGVHGPRRLQVIVVG | not failed
SNGTPLMTPTELIERQASGEQLQIIDTRSKKQYEISCVKGAIHIPLAEIRDRVAELDKNVTTITYCNKGVTGNAAQNILLNEGFKEVYNLSGGNKNY | failed
MQDKNFDKLAQKFAKNIYGTPKGEIRAAVLWRDLAPALAQFGDKKLRILDAGGGFGYFSQKLARLGHEVVLCDISAEMLAQAKEQIDASDTPLAIRLVHAPIQALSITEHGMFDLILCHAVVEWLADAKTTMEGLLTMLKPNGLFSLMFYNKEAMRFHALVSGNFDYVAADLKVKKKVRLTPTHPLYIHEVKLWFAQWQMALLKESGVRVIHDYLKKQQAADFDYQKLLSMELEYSQREPYISLGRYVHFLGLEHHHHHH | failed
MQPFRVTLVEDEPSHATLIQYHLNQLGAEVTVHPSGSAFFQHRSQLSTCDLLIVSDQLVDLSIFSLLDIVKEQTKQPSVLILTTGRHELIESSEHNLSYLQKPFAISELRAAIDYHKPSMGVTMNV | not failed
MRTRWLPRGRGLGSASARLRSAVAGRGTVRAELGYGAFLSYSGERDRRWLPQLRHAIEKQSRPWYKPPHIRVFLDKTGVSIGPELWGKIEAGLARSDWLVVLASPEARASVWVDREIAWWLEHKSVHTILLVVTAGQLVWDEERGDWDPERSTALPARLAGKFERQPVWKSVDPRPDGDAVFSTDDAGFSPDVDGVAFGVASVVRGLSEDELRSEGLRDTRRNLRTARIVATALGCLLLVASTLSVVAVLSRAEATRQRDQAVVQQLITQSSLLAERDPFAARLKALAAWRIDPSPETRFAVLDAAVNPASGVLSHSVPVDSVAFSPDGRTVASGGSDGVVRIWRTGTQRTAGRPLIGHHQGITSIAFAPDGRTLASSGFDGTVRLWDLADRTQIGAPFNAGAGSVRSVAFGRDGRTLVTVDEADSGTVRVWDVATHRQTGHPLDGPGPVLGTNADGSRVGSSTSQGGIRLWDTASGAPAGGALKGGDGVVTALSFSSDGKTFATADLVGNLRLWDIEARAPVGEPIASPATSTGVRAITFSPDGAMLAAAYEGGGVRLWDLRRRAQVGGPLLAHTSTVESVAFSPDGSVLASASADTTVRLWDVRTLRQAGAPIDTGGKGAAALSPDGRSLAVVDSEQAVRLWDVVARRRVGEPLVRGVYSFSPSLAFRADGAVLAIGADGLRLREVATRRPVGEPLLGTGDVGALSFGPDGRTLVSGGPDSVHVWDLTARPPTGTALGPRSVGVALSPDGRSLATTTQDDTVVFWDMATRRRIGETPGDHTAQITAVAWSPDGTTLATAGRDDTVRLWDAATRERIGAPLRGHHGGLTSVVFSPDGATLATGGNDHTVRLWDVATERPIGAPLEGHGAGVTGVAFTPGGDTLVSWAQDGTARLWNVAATVDPVRSLCAWADGAFTTDRWHEDVPAGPASRTLCRK | failed
MMNYNTPKVSIVVPSLNSISYIRECIDSILNQTLKDIEILCIDANSTDGTLEVLKNYEKKDKRLRVIISDKKSYGYQMNLGIKEAKGEYLGIVESDDYIKTNMYERLYEIAKKNDCEVVKGDFYIFAYGKTEYVNVLRNSCEDIYNYKVNWNKDIRIFLGSDGINPIGIYRLDLLRTNQIKLNETPGASYQDNGLWFQIFALAKSIYFINEAFYMLRRDNPNSSVKSKEKVYCACEEYDFIRDFLKKHPDLEKTLAPICALHRFGNYMFTLERIDERYKLDFLKRFSQDFRKILKDKELDENLFGNINMQRINKIIENPVIYYYFSRGARARLQNQLVYRLGKVVVEAKSFNKIIKLPFLMLKICLEHNFEHKVYRSIVQFRPDLKLLPLECYLDYHEALVIKEHLSYKFGKLILLSFKGWYKGKIFILPFMLKKRYKEYKNKMILEHHHHHH | failed
MFMIPAWLWIGLIAFALAFVCNRLSPRDLRWFNRLRRPSWLTFEWAIPFIWIAIFIAGAISATLAWNATADPGHRWGLMVGYLLLELTVMAYTPVMCKLRSLRVGSIIGATGFFVGLALVIAVSQVSTTAFGFLVPFLLWSPIGTYVTWAMIPLNPGEI | failed
MYMAQPGHIDHIKQINAGRVYKLIDQKGPISRIDLSKESELAPASITKITRELIDAHLIHETTVQEAISRGRPAVGLQTNNLGWQFLSMRLGRGYLTIALHELGGEVLIDTKIDIHEIDQDDVLARLLFEIEEFFQTYAAQLDRVTSIAITLPGLVNSEQGIVLQMPHYNVKNLALGPEIYKATGLPVFVANDTRAWALAEKLFGHSQDVDNSVLISIHHGLGAGIVLDGRVLQGRHGNIGELGHIQIDPQGKRCHCGNYGCLETVASSQAIRDQVTARIQAGEPSCLATVEEISIEDICAAAADGDPLAVDVIQQLGRYLGAAIAIVINLFNPEKILIGGVINQAKSILYPSIEQCIREQSLPVYHQDLKLVESRFYKQATMPGAALIKQALYDGLLLMKVVEG | not failed
SAKDPLAEAGLHFDELNKLRVLEPDVSQKTTELKEECEEFVDKIGQFQKIVGGLIELVDELAKEAETEKMKAIGARNLLKSVEKQREAQHQQLQALIAEKKMQLERYRIEYEALQKVEAEQSEFIDQFILQK | failed
MNHRHYGNFMAALSFVIWGLLPVYYRFLHNAAMDELLAWRIIGSVPVGILIVYAVTRHWPNWSQVWRDKKSLWYTFVASSLMCISWSAFTWALTHHRVIDASLGFFIGPLVSVALGVFVLGDKLSKGQLIAILLATCGVLYQVFQYGQLPFVALTMGLFFALYGLYKKKINYDWSTTLFIEALVLAPFALGYLLFKQWTTGELASSVDTTTLLLYFGSAPITILPLIFYSIAIRITNLSTVGLMQYIEPSLQFILAVVFFGELFDDVKAVTFAFIWVGLLLTIFEGVAKGIKRKKLANHSV | failed
SLNDLPGAGRMDVLCRCTSQALFISHGIRRDVEVYLLLLGPPSPPKSILIKGDEVRRMSPDERNVAGHIKKALAVECGKSWKKVHSGVYVSRKGLEELIEELSEKYSIIYLKEDGVDISNAQLPPNPLFVIGDHEGLTEEQEKVVERYAALKLSLSPLSLLAEQCVVIAHHHLDRLQF | not failed
MGIGFKGRKTLLRELVKYMVTLCISLVVLALLYIFINTIAMNTGFSHPANYNEREAEKLAPKLETIDKVTADMIPDTMSYAILNKETKQKTAGTIKEKDLQLVKKKIEKKPYVNYKQKGYLVIERNNEYCVLQYSLRADFSSPLLRKYLPNYELTSICILIILLIIVISIITTYFANRLRKHFETLNVITRYIKEQNLQFTPEFTHIKEFDDVIDSLIEMRDALQSSLEALWRLEKNKKEQIGALAHEIKIPITIIKGNAELLSLSMQNEEQAEYTKYILGAGNQIEQYIYQLIHLSKTEDALTIHLEKASVDELTETLVKDISAYKGNKNINISFKKENLMKEAKIDWQLLHRALLNILTNAVDYTPEGGTVSVHAESILRYFIFL | failed
MAGRFAPRPPRAVVRDGIPRQALAPGRVRVWAPDGPLDVGLVLGPLRRGPGDPTFRTMPDGSVWRTGRTPAGPGTLRVTARGGEVRGEAWGPGAEWLLERLPLMLGAEDDPSAFVPRHRLLAVTAHRRPGLRLTRTGLVLESLIPSILEQKVTTLEAYQAWRLLVRKFGEPAPGPAPGRMCVMPAARTWALIPSWEWHLAGVDDKRASTVLRAVRVAARLEEAAGMEPAAARERLELVPGVGPWTSAETVQRSHGAPDAVTVGDLHLPGIVGFALGGDRYADDAEMLRLLEPYAGQRHRAARLVLLSGRVPERRAPRMAPRGIERL | failed
MAILSYISATSTTPPIPQDQSPNSRLPTKIILPNKKPEKWSTGVAPGEYGGPPTTTKLRKYWGGEKEDPITSTDLIWNRDFMDQMKKLFDDPNDSSLDPSPSKEKSSGFLSFSRVMSLDSMDVDLSKELASSSKSVVKNRLDTSKSEAKKQMSKAIVSPKWKLAPTRREQEKWDRATKAATGGSDVMFRELRRPRGDPEVQAAKDREQYFKLKNKIQVLTLGIGGVGLVSAYISYTPEIALSFGAGLLGSLAYMRMLGNSVDAMADGARGVAKGAANQPRLLVPVVLVMIFNRWNAILVPEYGFMHLELIPMLVGFFTYKIATFFQAIEEAISITTQKPESISPDTQASD | not failed
MLSVVSPNRSTARAARTPFWRRAAVGLCLLGVAMSGPLAAQDPAQVNTFIGSKDDGNTYPGASAPFGLIQVSPIGAHYAGWRYDDPSIRGFGHSFLSGAGCWEQGGQVSVLPVTGRIGPGGDFDTNDAKAFDQKRYAARYTHDGEVGQAGYYKVRLTDYGGIDAEASALTRAATERYTFAPGADTGHVLVNVAQANDRHVVIGSQLQIVGDRVVEGKLTTQSFCGGHEYTTWFRLEFDRPFTAHGVWGEEGGVPGARHGMGGELKPNGAWLSFPLGKDKNARAVTVVSAISHVDAQGARSNLRADGMQGGKLLSLEQMRQRAQNGWRNALASMQVEGASNDDRSVAYTALYHALLQPLTGSDADGRYRGYDDAIHRADGWTYYEYFSLWDTYRSQNQLLALLQPTRARDIGRSLLAIQQQGGWLPRWGYANFDTNIMTGDPVTPFLVDLWRFGALQGNEAEAYAALRQNAFGQPPINSRHAGRSGNANYLANGFVQYDRAFPSKGMDVDPHHGGSATLEYALADCALAQMAQALGHGEDAAQLRKRGGNWHRVWDADVRDAETGFAGFPRPRLEDGSWYAPSDDHYSPRSEHGFHEGTAWQYQWLVQQDIPGMLQAMHGSQQAGKRLDAFFAYDDLLKDPLTAARTHWVVGPYSYYNQYRYNPNNEPDLHAPWMYTLIGQPWKTATVVRAAQQLFTNAPNGVTGNDDLGTMSAWYLFSALGLYPAVPGSGQFLLHAPRFKRVTLNLGNGKRLRIDAPGADGRALQYVDNVRWNGKAQPQVFLDWAQLQQGGTLAFALTKQAPTQGWGTQADALPASFCATPQAQ | failed
